The experiment addresses nrl_human NRL (UniProt P54845).

Sequence of nrl_human NRL (P54845 whole entry): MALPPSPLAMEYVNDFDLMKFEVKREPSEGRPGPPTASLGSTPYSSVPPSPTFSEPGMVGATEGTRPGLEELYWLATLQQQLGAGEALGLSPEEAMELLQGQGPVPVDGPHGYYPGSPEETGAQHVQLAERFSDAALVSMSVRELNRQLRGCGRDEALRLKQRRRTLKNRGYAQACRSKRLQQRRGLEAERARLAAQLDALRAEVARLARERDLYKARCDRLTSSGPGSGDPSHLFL
Sequence of Cone-rod homeobox protein (Bos taurus (Bovine)), Q9XSK0 R41W (Q9XSK0 whole entry R41W): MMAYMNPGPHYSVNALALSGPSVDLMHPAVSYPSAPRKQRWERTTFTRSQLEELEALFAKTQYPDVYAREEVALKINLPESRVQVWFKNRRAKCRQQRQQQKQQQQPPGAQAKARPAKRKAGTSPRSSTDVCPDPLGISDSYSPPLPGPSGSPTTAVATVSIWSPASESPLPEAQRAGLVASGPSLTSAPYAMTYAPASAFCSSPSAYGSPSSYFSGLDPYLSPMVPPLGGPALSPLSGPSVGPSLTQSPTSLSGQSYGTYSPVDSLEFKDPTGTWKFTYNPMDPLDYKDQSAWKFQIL
Sequence of Cone-rod homeobox protein (Bos taurus (Bovine)), Q9XSK0 R90W (Q9XSK0 whole entry R90W): as the sequence (Q9XSK0 whole entry R41W) above, with W41R, R90W counted along it

For “Cone-rod homeobox protein (Bos taurus (Bovine)), Q9XSK0 R41W”, the “effect of a mutation on the interaction” value was “decreasing interaction”.

On to “Cone-rod homeobox protein (Bos taurus (Bovine)), Q9XSK0 R90W”, for which the “effect of a mutation on the interaction” value is recorded as “decreasing interaction”.

Source of the values: IntAct's records for PubMed 10887186.
